These results are taken from PMC12930380, “Overcoming Ligand Discovery Challenges: Developing Peptide-Based Tracers for SPSB2” (ACS Chemical Biology, 2025).

Bridge positions count the residues as written; N and C are the ends. Square brackets hold non-standard residues; d marks the D form. Primed or numbered codes have the meaning given here. Ends that are not written are not given here. Peptide text beside a SMILES is read from it. * marks the point of attachment. X1 = O=C(CCC1=[N+]2C(=Cc3ccc(-c4ccc[nH]4)n3[B-]2(F)F)C=C1)*; PEG4′ = tetra(ethylene glycol) spacer; PEG4 = NCCOCCOCCOCCOCCC(=O)O; PEG4″ = not defined here

One data set relates to HCT116 cells. As to the kind of experiment: CellTiter-Glo cytotoxicity assay. The class given is cell-based. The note with it: 0.39 μM to 50 μM, 2 h incubation, 37 °C, n = 6. The procedure: For cytotoxicity measurements, 10 μL HCT116 cells in Dulbecco’s Modified Eagle Medium (DMEM) were seeded at 2*10^5 cells/mL into a white 384-well-flat-bottom plate. […] Ten μL CellTiter-Glo 2.0 Reagent (Promega) was added to each well, followed by an incubation of 10 min at RT. Luminescence was measured, using a PheraSTAR FSX plate reader. Data was normalized to cells treated with 1% DMSO (100% survival control) and digitonin (0% survival control), then plotted using GraphPad Prism version 8.0.1.

Data set [1] deals with T1, hSPSB2^SPRY (Homo sapiens, UniProt Q99619).
T1 construct: Human His6-SPSB2^SPRY (86–219) was expressed as a fusion construct; made in house; host or cells: Escherichia coli BL21(DE3)
T1 sequence (Q99619 26-219 limits assumed): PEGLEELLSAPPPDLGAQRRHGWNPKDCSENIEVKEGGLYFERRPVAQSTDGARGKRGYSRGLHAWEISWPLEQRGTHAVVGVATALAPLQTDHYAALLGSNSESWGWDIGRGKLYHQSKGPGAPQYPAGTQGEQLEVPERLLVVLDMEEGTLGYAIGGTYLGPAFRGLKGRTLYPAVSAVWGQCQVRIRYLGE
As to the kind of experiment: Differential scanning fluorimetry (thermal shift). The class given is binding. The note with it: DSF, 50 μM peptide, 5 μM His-hSPSB2^SPRY, 30 mM HEPES pH 7.5, 5% DMSO, mean ± SD (n = 4); for Mean Tm: DMSO control 43.2 ± 0.1. The procedure:
For peptide screening, 50 μM peptide was added to 5 μM His-hSPSB2^SPRY diluted in buffer containing 30 mM HEPES pH 7.5, 100 mM NaCl, 1 mM TCEP, 5x SYPRO Orange and 5% DMSO as quadruplicates. Thermal shift analyses were carried out using a QuantStudio 5 Real-Time PCR System (Applied Biosystems) with a temperature gradient ranging from 25 to 95 °C at an increase of 0.05 °C/s. Data analysis was performed by fitting a Boltzmann sigmoidal curve to the raw values using the Protein Thermal Shift software (Applied Biosystems).

The target in data set [2] is T1, hSPSB2^SPRY. The experiment in a line: Surface plasmon resonance single cycle kinetics. The class given is binding. The note with it: immobilized His-hSPSB2^SPRY; for SPR binding behaviour (qualitative): no KD determined; for koff / kon: mean ± SD (n = 3); for koff: read-out: SPR koff (dissociation rate constant); for kon: read-out: SPR kon (association rate constant). The procedure:
Surface Plasmon Resonance experiments were conducted on a Biacore T200 instrument with a Series S Sensor Chip CM5 (Cytiva) and 10 mM HEPES pH 7.5, 150 mM NaCl, 0.5 mM TCEP, 0.05% Tween20 and 2% DMSO for the running buffer. His-hSPSB2^SPRY was diluted to 5 μg/mL in Acetate pH 5.5 and immobilized at 10 μL/min to reach 400–700 RU response levels on Flow-channel (FC) 2–4 for triplicates. Immobilization was performed via standard amine coupling procedure by injecting a mixture of 483 mM EDC and […] for activation with a subsequent injection of 1 M ethanolamine for deactivation. FC1 was used as a reference surface without protein-injection. Kinetic titration experiments were performed using a single-cycle kinetics procedure, with five peptide concentrations (0.8 nM to 1 μM) injected for 150 s each at a flow rate of 30 μL/min, followed by a dissociation phase of 600 s. After each peptide titration, multiple buffer injections were performed to reach a stable baseline. Solvent correction and blank injections were also included. After referencing, blank subtraction, and solvent correction, the data were analyzed using the Biacore T200 evaluation software. Sensorgrams with overlaid fit were replotted using GraphPad Prism version 8.0.1.

Data set [3] has as its target T2, C-terminally Nanoluc-tagged human full length SPSB2 (human, UniProt Q99619 1-263).
T2 construct: source: HCT116, transfected (FuGENE HD), in intact or digitonin-permeabilized cells; not shown: NanoLuc, C-terminal, kept
T2 sequence (looked up): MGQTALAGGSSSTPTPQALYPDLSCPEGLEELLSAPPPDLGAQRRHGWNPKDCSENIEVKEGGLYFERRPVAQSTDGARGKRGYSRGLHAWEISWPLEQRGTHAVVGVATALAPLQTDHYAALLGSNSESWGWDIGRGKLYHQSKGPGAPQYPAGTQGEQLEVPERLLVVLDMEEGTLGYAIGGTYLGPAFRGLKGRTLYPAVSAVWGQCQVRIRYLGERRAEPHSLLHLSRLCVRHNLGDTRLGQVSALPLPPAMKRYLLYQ
As to the kind of experiment: FRET or BRET; NanoBRET tracer titration, apparent KD; 39 pM - 2.5 μM tracer titrated to HCT116 cells transfected with SPSB2-NanoLuc and permeabilized with 25 μM digitonin. The note with it: one partner purified.

Data set [4] deals with T2, C-terminally Nanoluc-tagged human full …. The experiment in a line: FRET or BRET; NanoBRET tracer titration, apparent KD; 39 pM - 2.5 μM tracer titrated to intact HCT116 cells transfected with SPSB2-NanoLuc; 2 h at 37 °C. The note with it: one partner purified.
Data set [5] deals with T3, C-terminally Nanoluc-tagged human full length SPSB2 (human, UniProt Q99619 1-263).
T3 construct: also called SPRY domain-containing SOCS box protein 2; source: HCT116, transfected, in intact cells; not shown: NanoLuc, C-terminal, kept
T3 sequence (looked up): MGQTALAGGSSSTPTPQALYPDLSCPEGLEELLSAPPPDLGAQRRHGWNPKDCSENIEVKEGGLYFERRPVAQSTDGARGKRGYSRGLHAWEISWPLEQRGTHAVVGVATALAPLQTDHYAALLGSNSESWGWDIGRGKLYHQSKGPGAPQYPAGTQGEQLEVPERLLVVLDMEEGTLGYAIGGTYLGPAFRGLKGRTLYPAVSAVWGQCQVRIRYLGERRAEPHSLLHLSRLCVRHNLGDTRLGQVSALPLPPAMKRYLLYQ
As to the kind of experiment: FRET or BRET; NanoBRET displacement in intact HCT116 cells transfected with SPSB2-NanoLuc; 20 nM cyclic TAT tracer, cyclic TAT peptide titrated 6 nM to 50 uM, triplicates (biological replicate). The note with it: one partner purified.

Data set [6] concerns the target T3, C-terminally Nanoluc-tagged human full …. As to the kind of experiment: FRET or BRET; NanoBRET displacement in intact HCT116 cells transfected with SPSB2-NanoLuc; 30 nM cyclic TAT tracer, cyclic TAT peptide titrated 6 nM to 50 uM, triplicates. The note with it: one partner purified.
Data set [7] deals with Human His6-SPSB2^SPRY (86–219) (human) (UniProt Q99619). As to the kind of experiment: differential scanning fluorimetry; 50 μM peptide added to 5 μM His-hSPSB2^SPRY; 30 mM HEPES pH 7.5, 100 mM NaCl, 1 mM TCEP, 5x SYPRO Orange, 5% DMSO; 25 to 95 °C; quadruplicates.
Data set [8] shares this target. The experiment in a line: SPR.
Data set [9] has the same target. As to the kind of experiment: differential scanning fluorimetry.

In the case of `CC[C@H](C)[C@H](NC(=O)[C@H](CC(=O)O)NC(=O)[C@@H](NC(=O)CNC(=O)[C@H](CO)NC(=O)CNC(=O)[C@@H]1CSSC[C@H](NC(=O)CCOCCOCCOCCOCCN)C(=O)N[C@@H](Cc2ccc(O)cc2)C(=O)NCC(=O)N[C@@H](CCCNC(=N)N)C(=O)N[C@@H](CCCCN)C(=O)N[C@@H](CCCCN)C(=O)N[C@@H](CCCNC(=N)N)C(=O)N[C@@H](CCCNC(=N)N)C(=O)N[C@@H](CCC(N)=O)C(=O)N[C@@H](CCCNC(=N)N)C(=O)N[C@@H](CCCNC(=N)N)C(=O)N[C@@H](CCCNC(=N)N)C(=O)N1)C(C)C)C(=O)N[C@@H](CC(N)=O)C(=O)N[C@@H](CC(N)=O)C(=O)N[C@@H](CC(N)=O)C(=O)O` [Cyclic TAT peptide] (H-[PEG4]CYGRKKRRQRRRCGSGVDINNN-OH; disulfide 2-14; N-terminus and C-terminus assumed), in the data set with HCT116 cells, the “Impact on cell viability (CellTiter-Glo, qualitative)” value is recorded as “no impact on cell viability at any tested concentration”. Besides, on hSPSB2^SPRY [1], the ΔTm at 50 µM is 8.1 ± 0.1 °C and the “Mean Tm” value was 51.4 ± 0.1 °C. Besides, the “SPR binding behaviour (qualitative)” value at hSPSB2^SPRY [2] is “non 1:1 binding interaction”.
On to `CC[C@H](C)[C@H](NC(=O)[C@H](CC(=O)O)NC(=O)[C@@H](NC(=O)CNC(=O)[C@H](CO)NC(=O)CNC(=O)[C@@H]1CSSC[C@H](NC(=O)CCOCCOCCOCCOCCNC(=O)CCC2=[N+]3C(=Cc4ccc(-c5ccc[nH]5)n4[B-]3(F)F)C=C2)C(=O)N[C@@H](Cc2ccc(O)cc2)C(=O)NCC(=O)N[C@@H](CCCNC(=N)N)C(=O)N[C@@H](CCCCN)C(=O)N[C@@H](CCCCN)C(=O)N[C@@H](CCCNC(=N)N)C(=O)N[C@@H](CCCNC(=N)N)C(=O)N[C@@H](CCC(N)=O)C(=O)N[C@@H](CCCNC(=N)N)C(=O)N[C@@H](CCCNC(=N)N)C(=O)N[C@@H](CCCNC(=N)N)C(=O)N1)C(C)C)C(=O)N[C@@H](CC(N)=O)C(=O)N[C@@H](CC(N)=O)C(=O)N[C@@H](CC(N)=O)C(=O)O` [Cyclic TAT tracer] ({X1-PEG4}-CYGRKKRRQRRRCGSGVDINNN-OH; disulfide 1-13), for which the “Concentration leading to reduced cell survival (CellTiter-Glo)” value in the data set with HCT116 cells was “above 10 μM”.
As for `CC[C@H](C)[C@H](NC(=O)[C@H](CC(=O)O)NC(=O)[C@@H](NC(=O)CNC(=O)[C@H](CO)NC(=O)CNC(=O)[C@H](CC(=O)O)NC(=O)CNC(=O)[C@H](CCCNC(=N)N)NC(=O)CCOCCOCCOCCOCCN)C(C)C)C(=O)N[C@@H](CC(N)=O)C(=O)N[C@@H](CC(N)=O)C(=O)N[C@@H](CC(N)=O)C(=O)O` [Linear RGD peptide] (H-[PEG4]RGDGSGVDINNN-OH; N-terminus and C-terminus assumed), at hSPSB2^SPRY [1], the ΔTm at 50 µM amounted to 10.9 ± 0.2 °C and the “Mean Tm” value amounted to 54.1 ± 0.2 °C. On hSPSB2^SPRY [2], the koff amounted to 0.032 s⁻¹ and the kon came out at 200000 M⁻¹ s⁻¹.
As for `CC[C@H](C)[C@H](NC(=O)[C@H](CC(=O)O)NC(=O)[C@H](CCCCN)NC(=O)[C@H](CCC(=O)O)NC(=O)[C@H](CCC(=O)O)NC(=O)[C@@H](N)CCCCN)C(=O)N[C@@H](CC(N)=O)C(=O)N[C@@H](CC(N)=O)C(=O)N[C@@H](CC(N)=O)C(=O)N[C@H](C(=O)N[C@@H](CCCCN)C(=O)N[C@@H](CCCCN)C(=O)N[C@H](C(=O)O)[C@@H](C)O)C(C)C` [iNOS peptide, reference compound] (H-KEEKDINNNVKKT-OH), on hSPSB2^SPRY [1], the ΔTm at 50 µM amounted to 14.1 ± 0.1 °C. Also, on hSPSB2^SPRY [2], the koff is 0.0024 s⁻¹ and the kon was found to be 2.9e+06 M⁻¹ s⁻¹.
As for “PEG4-YGRKKRRQRRRGSGVDINNN [Linear TAT peptide]”, at hSPSB2^SPRY [1], the ΔTm came out at 10.6 ± 0.1 °C and the “Mean Tm” value amounted to 53.8 ± 0.1 °C. For the same molecule, the “SPR binding behaviour (qualitative)” value at hSPSB2^SPRY [2] is “non 1:1 binding interaction”.

B1: Cyclic TAT tracer (peptide)
peptide: {BODIPY 576/589-PEG4″}-CYGRKKRRQRRRCGSGVDINNN
modifications: disulfide 1-13
notes: also called fluorophore-tagged cyclic TAT tracer; source: synthetic peptide (custom synthesized by Synpel Chemical, GeneCust and GenScript Biotech)
For B1, the Kd was 346 nM in data set [3] and 86 nM in data set [4].

B2: cyclic TAT peptide (PEG4-CYGRKKRRQRRRCGSGVDINNN) (peptide)
peptide: [PEG4′]CYGRKKRRQRRRCGSGVDINNN
modifications: disulfide 2-14
notes: also called cyclic TAT peptide variant; source: synthetic peptide (custom synthesized by Synpel Chemical, GeneCust and GenScript Biotech)
On to B2, for which the values for the EC50 in data set [5] and in data set [6] were about 200 nM and about 386 nM, respectively.
With [PEG4′]CYGRKKRRQRRRCGSGVDINNN (disulfide 2-14) [cyclic TAT peptide], in [7], the ΔTm was 8.1 °C.
Turning to [PEG4′]YGRKKRRQRRRGSGVDINNN [linear TAT peptide], in data set [7], the ΔTm was determined as 10.6 °C.
In data set [8], KEEKDINNNVKKT [iNOS peptide] gave a Kd of 0.8 nM, a koff of 0.0024 s⁻¹ and a kon of 2.9e+06 M⁻¹ s⁻¹. The ΔTm in data set [9] turned out to be 14.1 °C.
Turning to [PEG4′]RGDGSGVDINNN [linear RGD peptide], in data set [8], the Kd was 162 nM, the koff came out at 0.032 s⁻¹ and the kon was 200000 M⁻¹ s⁻¹. In data set [9], the ΔTm stood at 10.9 °C.
